Results reported in the DeepSol protein solubility set.

assay: soluble on expression in E. coli; label from the status in PepcDB or PDB records

Row | Sequence | soluble on expression in E. coli
1 | MGSDKIHHHHHHTSCIEDEKDYSQIIETRVANCETSKDFSVPVKEGYTTFVTSGEDTLAMANEPITIRIPKNATISTRAEGDGINISYTILDEGSETTYAKVWQAIMFEDTQNGDYDYNDLIIHVKNTASNHAYQHPTETWQTIEIQPIALGSTKTIKLGCILSDGSTHMISDDVRTDLFGGRQGFINTVNDNDPIRYKLASTNIKNYAMPKKEKTSAAWVAWFIEVDGKRMYAASSDIDYKSYDMVNKENMPYGLAVSNGNGTFSYPQEKNSLFETYPGFSDWINGKVSSIGSFQKELVYKYCSGGIIGEDGKSHKIWDYLDLN | not soluble
2 | MGSDKIHHHHHHVAAESKTIAIALNNDFINNLDLSPASTVIEQLLRDGAASHEQQLRFDINYDLEPGDPRELSEIPEIRLWFVRLDAKYPWLAFLLDWKAGEFARYAAMLVPHQFSSQDGIQYNPEALEIFLMHKIFILGDWLKQQDIPSLSRLKSMAQMLGYELDDAFFEIF | not soluble
3 | MGSDKIHHHHHHVCRNCSNKQKIRKNSMDYTDISILHTNDMHSYMENFPKKAQLIANIRARNEKEGVPTFVFDSGDLFSGNIFFNMYRGVKEIELMNQIGCQAMTLGNHEFDHGDELISRLDDYAQFPIVSSNLRYQDVEVADELVPLEDVLEFDMNGKNLYVLGLTTLETQEVASPSENVIFEDHKQALRRLVDQIVSQNPSAHLVLLSHLGYDEDVHLAKDFPELNVILGGHTHTILKQPSQIGGVSICQAGQYGRFVGHLSLRCFADGRREVQAYDLIEVEKLTQEDRAVKAIIDQMKSERDAAFSKPIAILPQALDGERDSIRQGLSTLAPVICQALFEQASQLGLQADGAVINGFGIRASLSAGPIFYSDLVKVLPFSKRVLLVRIKGRDLLSSLQTGLHPQMWGIVQSGEDLLVNGRAVESDKDYQIVTNSFVWSGKDNYDDFHKAEIVQDLGLDIDIISEFFKRQYGG | not soluble
4 | MGSDKIHHHHHHVGYPRDFQLNYATLFSVSPLVIDWGSYSQIEAEMRLFQAAAPGKYAYYHLLSGLDLPLANQDEIHAFFAAHPGKEFITYSSQKNGAQLLARVQKYHFTHNFRQPNKAMRLFRKIEKAEQRVFPVRKKFAGTLAFGSNWVSLENDLVQVLLREDDRIRTMFARGFLVDELLVPTMLNIYPEFKDRIYYDRPVHDRPEEFQGSLRYINWWDGSPYVWREKDYETLLAARRQGHLFSRKFDAEVDKAIIDKIAGQLLEIK | not soluble
5 | MGSDKIHHHHHHVIRSLWISKTGLDAQQTQMDVIANNLANVSTNGFKRSRAVFEDLLYQTLRQPGAQSSQQTQLPSGLQLGTGVRPVATEHIFTQGNLQQTGNSKDVAIQGQGFFQVLRPDGSTAYTRDGSFQTDFEGQLVTSSGYHVQPAITIPPNAQSITVGRDGIVSVTTQDSTTPVQVGNLQLATFINPAGLQSVGENLYVETASSGTPNVTNPGTDGAGLLNQGYVETSNVNVVEELVNMIQTQRAYEINSKSVQTSDQMLQRLTQL | not soluble
6 | MGSDKIHHHHHHVNETSHSLEYEAFIEEARHVVEARFGHTGTTGEVPRLLLRHGTVRMARDMARGIRPCQVKMPDVSGLQYGDFAPLDPLALLRDEVKLPSLPAVVAELRDVLSSPNSSAADVARVISRDAGLSAFLLRMVNSAFYSFPSRIDTVSRAVALVGRQQLSTLALGVMVIGAMRDLPVAHLDLSLFWQHSIACAVVAGQLAEAAGMEEPERFFVAGLLHDIGRLAVFSLLPDRAAAILSMCSDYGMPAQDAELRVLGFDHATLGGMLLRKWNFPMSLVFSTLHHHVPERSVRHVEPAVVHVADVVVKGLGIGVSGMHQLPGFKEDAWQRLGVSVAVLEQLIDGLEERLRDTSSLLLE | not soluble
7 | MGSDKIHHHHHHVNVEVCLFLIGHGAPGSEAGSTELSRFEAASQDIEGLRRFAIHVPAQADDCDPLSKTDASTCPRCVLQWYFDDLELLERTLQPGRAIHDLVDGSSNNGLTFTHQVMAVRTFATPNPSGPGTRAERCTYLVSYEGEAQDFNAWLTHYLLHHPPLMAQLPGIRELEIYTRLDYRSGLRIRRATAMQRNKVVFDDPAALAAALASPVRASMKQDFNAFPPYSGATLHFPMRSIYGNLKPK | not soluble
8 | MGSDKIHHHHHHVPVSQLPSQPTDNNSSAATDVTPVVALKELVARLHREQNKIQDLLSSLGFALRSFNNLNQFLELIPLMATRVTDADGSALFLYKPNGQVRLEQLHWQDSGQRKNIRKALEIASSQITLLPNAAPLANATGILDDQMHRYLGPDVQIFGTAILVKHTERGWLYVLSRDPEYSWTETRQKLVRLVADQTAVAIENDELAVELRKKERLDQELEIGAEIQRRLLPRQCPTIPGAVLAARCKPANRVGGDYYDFIATNQNKIRSKTKGDTETGRWGLVIGDVMGKGVPAGLIMTMMRGMLRGEVLHGNSPAKILQNLNRVMYADLENSHRFVTLFYSEYNPHSRILSYSNAAHNPPLWWHAATKTVSRLDTLGMLIGLDANSQYEDAQVQLEPGDTIIYYTDGLTDAAAAGGDRFDEDNFVAGFNTACKYCNGPEEIVDYLFDQVQQFIGDDKQNTDDMTLVVLQIL | not soluble
9 | MGSDKIHHHHHHVQDKNFDKLAHKFAKNIYGTPKGEIRAAVLWRDLSSALAPFGDKKLRILDAGGGFGFFSQKLARLGHEVVLCDISQEMLIQAQAHIDASTEPLNIELIHAPIQALSVEQNGVFDLILCHAVVEWLTDAQRTMEGLLTMLKPNGLFSLMFYNKEAMRFHALISGNFDYVAADLKVKKKVRLTPTHPLYIQEVKQWFMDWEMTLISQSGVRVIHDYLKKSQAADFDYQKLLQMELEYSQHEPYISLGRYVHFLGISRGT | not soluble
10 | MGSDKIHHHHHHVSKLSKTRIILACLLNDSVMTTTTAALTPNPIPDLGTDLTTEPCPLTAAQLDVLNRQIKLWGKELGFAHIGVADVDLSQHEAALQDWLDKGYHGEMGYMANHGMMRARPAELHPGAIRVICARMDYLPPDAGFASNLTDPNLGYISRYAGGRDYHKLIRQRLKKLGDKINQYCQQLDFDATDFRPFVDSAPILERPLADKAGLGWTGKHSLILHPDAGSWFFLGELLINLPLPLDIPIEEGCNTCVACIKSCPTDAIVEPYVVDARRCISYLTIELQGAIPEEFRPLIENRIYGCDDCQLVCPVNAKAPLTKETDFHTRTTLIQPDLLTLFAWSETYFLNQTEGSAIRRIGHKRWLRNIAIALGNAPANPAIIEALEQRKHSEEVDDMVLEHIEWALVQQIQKAPQSALSRKTQRVIRSIQKGLPRDA | not soluble
11 | MGSDKIHHHHHHVSPRIVIVGAGPGGMATAIRLAGQGYQVEIFEAVDRPGGRMRGFSLGDYHFDTGPTILQVPRVYDELFSSAGLRFSDYVTLIRLDPNTRIRFWDGEYLDLTSNIAAFKAQLARFDPALPAEFERWYIEHIRKNVVGYEPYLGTPVRSPLVYLKPREIAAALAFRPWESLYDHFKRFFRDERVVYALSYQAKYLGMHPTACSSVFSLVTFLEFADGIWHPRGGFRALAAGLAKAATDLGVVIHYNSPVKQVLVEEGRACGVELVGGERIKADAVVVNADFGHALTHIIPPHARGTYTDQKLNSMEFSCSTFMLYLGVNRRWDHLPHHQLYLSANIRRNDPLWAKSAVLDEDDPSFYVCNPTIVDPTNAPPGHSTLFVLVPVPNLRYPVDWAAVEQRYRDLIIRQMAKLGFEDVERHIVVERRYTAETWRDEHHTYLGAVFNLIHSWSQLGPFRPHIRHNGARNLYWIGGAVHPGSGLMTILEAAKSAVHFIGEDLPLHQTTAVAH | not soluble
12 | MGSDKIHHHHHHVSRSVSIYVCQSCGAQTRQFFGRCNNCGEWNSIIEEKINQKSDKSIYTKINSPKEKSPYRSELISQTKNQLIERISSGYKELDRVLGGGLVPGSLVLIGGDPGIGKSTLILQSATEMAHHKSVLYVAAEESAQQVKLRWNRIEDAESNLHLLAETDLEMVIKELDHLKPEVAVIDSIQALHDQSLSSSPGSVAQVRECSAALQQIAKRQNISLLIIGHVTKDGMLAGPKVLEHLVDAVLTFEGDRFASHRLLRGVKNRFGATSELGVFEMQADGLSEVPNPSELFLSKTSAPGISTIVTCEGTRPLAIDIQALLNPTSYASPRRTTTGIEINRLHQILAVLEKNMNLSLSRYDCYLAVAGGLEVEEPGADLGIAAAIVSSLKDIELEEGVVFIGEIGLAGQLRLVRQMQQRINEVIRLGYKTLIIPDGIDTSEFETNQKLKILKASNINQALIYALDNN | not soluble
13 | MGSDKIHHHHHHVSSDQVAVAGNAERLFNGAWYNLFEYGTTYANIGYRALQCQDDMMASDVVSRPKYGFNSSYQFNDVAIPSDGRTSFAWYLIYKTIDNCNTAISIKGDSEELRQAQGQALALRAFCYLHLVQHYQFTYLKDKDAPCVPIYTEPTTSGTKPKGKSTVAQVYQQIFDDLNLAQDYLTNYVRKGDGQKFKPNTDVVNGLMARAYLLTGQWGEAAKAAEAARKGYSLMTTTAEYEGFNNISNKEWIWGSPQTLSQSDASYNFYYLDATYVGAYSSFMADPHLMDTFVKGDIRLPLFQWMREGYLGYKKFHMRSDDTADLVLMRSAEMYLIEAEAKVRDGVALDQAVAPLNTLRTARGVGNYDVTGKTKEQVIDEILMERRRELWGEGFGITDVLRNQKAVERMALSEDMQKTEVDCWQEGGSFAKRNPLGHWFLNFPDGKAFSANSSYYLYAIPEKEINANPNL | not soluble
14 | MGSDKIHHHHHHVSYPANRTPDHLLESDRAAGFEISADFERFDQRNDIFTRAFWDERVKSKDTDAFFASYRMEAAPRRGDGFTQKDFALRNAAWLISDIVSERSAEEGLREGFQGAIRDDTPVAPDKADLGAPEAEAAEMKAVAKLFGADLVGITHFDARWHYSARPDVRTMEAVPNDLPEGLGQVIVMGHAMDADLVETYPSALAGAATGREYSHEAAIVMQVAAYVRNLGYRAVASMNDTALVIPYAIKAGLGEYGRNQMVLTPEFGPRVRFSKIFTDMPLAVDAPRAFGLKAYCEGCDVCAVACPVKALPFGAPEFGGKAPSALRGVKKWTSDAEACFGYWAKLRSDCAICMRVCPFTAPRAGWVDRLWYKLAVGVFGDTGRGIARKWAARRAKARVKPKDWWAALRS | not soluble
15 | MGSDKIHHHHHHVVDSLQQWQEVEAVLADLSQASQEHHYRQTHRLVQDYLDRLQLSPREQQGLEPLLKSLERMQAKLEQQVLHIAVFGLVGRGKSSLLNALVGETVFETGAIHGVTTAIATAAWPLTTDEDGVQRLRWSGLGDVQVELIDTPGIDEIDGDQREALAKRVAQQADLILFVVSGDISQLEQDTLTVLHQAHKPLLLVLNKADQYSDRDREAIRNKLADERLRHLISIDEIVTVAAAPRQAEPEYDGDRLVGTKLVSLPPQVEPLRQRIITLLLHEGQSLLALNALLQMAMVDRQVVRRKLQSRDRQAEELIWRFAIAKGMAVAINPISFVDLLGGAAIDVALILQLSQLYDLPIGEGKAIALLRTIAVGMGSLGLGEGLVRVGLSALKGLMGVAAPVSGGLSLGVYVPVALTQAGIGGFATYAIGQVTKAYLANGADWGPEGAGLLTQQILDSLDEAAILQRLRGEIDRRLRLKQL | not soluble
16 | MGSDKIHHHHHHVVDVAHAVKPMSVPQRIEQASRHDLLVLSSQSGPRQSAWSSLTSALGGQDIDDHAGMPCRRVMLMLAEHEAELLRRECQLIPIVGADAVAQSVTLTKKAVPGNWCAWGVLDRDAAQQHLDAKIVSMGARLRDEPAFGLMFSCLARGPHFYDGVDQDIALLKRYYPSMPVIGFYGNGEIAPLNGRNVLWQNSVVLGLFTAES | not soluble
17 | MGSDKIHHHHHHWQVTGSKTTLDGVEAARMSGIESYPLRLEPELVCEADDLDALLDVDALVITLPARRSGPGEDFYLQAMQELVDSALAYRIPRIIFTSSTSVYGDAQGVVKENTPRNPVTASGRTLKELEDWLHNLPGTSVDILRLAGLVGPGRHPGRFFAGKTAPDGQHGVNLVHLEDVVGAITLLLQAPKGGHIYNICAPAHPARNVFYPQMTRLLGMAPPHFRDAPDNGKGKIIDGSRICNELGFEYQYPDPLVMPME | not soluble
